Measured values published in a protein production outcome set (Wang et al. 2014).

Assay: label from the status in PepcDB records

Sequence: MRLEGEGRSARAGQNLSRAGSARRGAPRDLSMNNLTELQPGLFHHLRFLEELRLSGNHLSHIPGQAFSGLYSLKILMLQNNQLGGIPAEALWELPSLQSLDLNYNKLQEFPVAIRTLGRLQELGFHNNNIKAIPEKAFMGNPLLQTIHFYDNPIQFVGRSAFQYLPKLHTLSLNGAMDIQEFPDLKGTTSLEILTLTRAGIRLLPSGMCQQLPRLRVLELSHNQIEELPSLHRCQKLEEIGLQHNRIWEIGADTFSQLSSLQALDLSWNAIRSIHPEAFSTLHSLVKLDLTDNQLTTLPLAGLGGLMHLKLKGNLALSQAFSKDSFPKLRILEVPYAYQCCPYGMCASFFKASGQWEAEDLHLDDEESSKRPLGLLARQAENHYDQDLDELQLEMEDSKPHPSVQCSPTPGPFKPCEYLFESWGIRLAVWAIVLLSVLCNGLVLLTVFAGGPVPLPPVKFVVGAIAGANTLTGISCGLLASVDALTFGQFSEYGARWETGLGCRATGFLAVLGSEASVLLLTLAAVQCSVSVSCVRAYGKSPSLGSVRAGVLGCLALAGLAAALPLASVGEYGASPLCLPYAPPEGQPAALGFTVALVMMNSFCFLVVAGAYIKLYCDLPRGDFEAVWDCAMVRHVAWLIFADGLLYCPVAFLSFASMLGLFPVTPEAVKSVLLVVLPLPACLNPLLYLLFNPHFRDDLRRLRPRAGDSGPLAYAAAGELEKSSCDSTQALVAFSDVDLILEASEAGRPPGLETYGFPSVTLISCQQPGAPRLEGSHCVEPEGNHFGNPQPSMDGELLLRAEGSTPAGGGLSGGGGFQPSGLAFASHV
- protein production: failed

Sequence: MRLEKFIHLLGERGFDGALISPGTNLYYLTGLRLHEVGERLAILAVSAEGDYRFLAPSLYENVVNNFPATFWHDGENPYAKLREILEELGISKGRILIEDTMRADWLIGIMKLGKFTFQPLSSLIKELRMIKDKEEVKMMEHASRIADKVFEEILTWDLIGMKERELALKIELLIRELSDGIAFEPIVASGENAANPHHEPGERKIRKGDIIILDYGARWKGYCSDITRTIGLGELDERLVKIYEVVKDAQESAFKAVREGIKAKDVDSRAREVISKAGYGEYFIHRTGHGLGLDVHEEPYIGPDGEVILKNGMTFTIEPGIYVPGLGGVRIEDDIVVDEGKGRRLTKAERELIIL
- protein production: not failed

Sequence: MRLFSIPPPTLLAGFLAVLIGYASSAAIIWQAAIVAGATTAQISGWMTALGLAMGVSTLTLTLWYRVPVLTAWSTPGAALLVTGLQGLTLNEAIGVFIVTNALIVLCGITGLFARLMRIIPHSLAAAMLAGILLRFGLQAFASLDGQFTLCGSMLLVWLATKAVAPRYAVIAAMIIGIVIVIAQGDVVTTDVVFKPVLPTYITPDFSFAHSLSVALPLFLVTMASQNAPGIAAMKAAGYSAPVSPLIVFTGLLALVFSPFGVYSVGIAAITAAICQSPEAHPDKDQRWLAAAVAGIFYLLAGLFGSAITGMMAALPVSWIQMLAGLALLSTIGGSLYQALHNERERDAAVVAFLVTASGLTLVGIGSAFWGLIAGGVCYVVLNLIADRNRY
- protein production: failed

Sequence: MRLLISLIAGALFGGGLFVSGMTDTRKVQGWLDVFGDWDPTLAFVMGGAILPMLLAWRLTEGRKPLAGGSFPALPRPEMDHRLITGSVLFGMGWGLAGLCPGPAIASLSYGGVGGLIFLVAMLAGMAVAPRVGTQLDRLAATA
- protein production: failed

Sequence: MRLNHNSYEIFDFMRSRSAIGVLSKIIITIPPINLRMIIGVMGPEGSYSERAAKLWARKNGLRGAEFHYFADIEDAFLAAVGGKTDISVVPVENSIEGSVGVTLDLLLENEAVIIGEIVVKIEHCLLSKGEPEKIRVILSHPQGLAQCRHFLKTHFPEAELRSTGSTSHAARLAGEFEEMAAIASPEAAERYGLKILLSNVQDRKENHTRFIVVRGGEKVLSGKIKGKADSGEKLNTVFGRNAEHKLCSETETGTENSSSYAFKTSLIVYLEKDRPGALYEPLGFFAKRGINLTKIESRPSKKELGDYYFYIDLEGNISDVLIKDALEDIKSKASKKSRSSTLKVLGSYPAFKK
- protein production: failed

Sequence: MRLQELVLVKISLVFLWLIGFVFLQRSEENGFEEPNNGEELSWDDLEREAASNISSKRSHAERSHQHESFTKGDELSGDLYELWRQEQNSIAARLDKELKSRWELDELIEEQLSRYQSHYDNSMVSTFLKDVSNLVLPTWIPPHELAAVAWLGDWRPTSILDLVRILAAQNPSFSLSESSLRVLSQLLREIRIEEAVIDEEYAEIQATGVLYLPFSPLCNTRLHEEALRSVQELFGNIHKVISKAQRLRYKVLELVMKKLLNQTDTAEFVVAFAGIQDAIHQFGEQKKLRKIYPAVPSPLKGSGSSS
- protein production: not failed

Sequence: MRLSISLGESPCISSLKVRGFTASPQTPNLSISVIVTAFNRREYLRYALLSLKNQEADSFEVVVSKNFSDRVTDKFCSENGFINVTTDSSRSGERVYDALRSSHGDFILFLDDDDIFRRTKISRVSDVISKRNVAFYRNAIFPVTVDGVIATHYQPQMHDPLYLILERVSDVRLLHRHACDFNSSSMGISRSMLDSHASDLRKINLAVDTFYFALAASSRMPLFCDSMIESIYRIMPSSTSRDLRDFYLFSRFERSFLRRYVPDLERIAEIVEGSPAKPVIGRMLSLYKILQYVFEEDRVNLKPSPLDRVRFLLERPFPYSLLYSRIFRDAAMRSEFRRENRIVYGNADRRRRLEHHHHHH
- protein production: not failed

Sequence: MRLVEIGRFGAPYALKGGLRFRGEPVVLHLERVYVEGHGWRAIEDLYRVGEELVVHLAGVTDRTLAEALVGLRVYAEVADLPPLEEGRYYYFALIGLPVYVEGRQVGEVVDILDAGAQDVLIIRGVGERLRDRAERLVPLQAPYVRVEEGSIHVDPIPGLFD
- protein production: not failed

Sequence: MRLVIHGKNIDITDGIRSYLNQKIERATSHFQNVINEVDVHLSVARNRSTAPKQTAEVTVFVNGSVIRAEESSENLYASIDLVADKIARKLRKLKEKRQDKSRAKDTNSVVEPEVVTDLVGDRTPQLPEQVVRMKYFAMPPMTIQEALEHLEMVDHDFYVFRNRDTGEINVVYERNHGGYGVIQPRPTSNNHHHNTADAAAKATAKAGPLEHHHHHH
- protein production: not failed

Sequence: MRMNMKKISLSLLTLGVLSGLSINASALPADFPVMPAATAPVSQYVTAVNADSSITFRLFAPTAKQVSVFTGSTPDSIVSHAMTKDEAGVWSFKTPVQAPNLYEYFFSVDGFRTIDTGTAFTKPQRQVNTSLILVPGSILDVRQIPHGELRTLTYHSNALKSERQMYVWTPPGYSESSKPLPVLYFYHGFGDTGASAVVQGRIPQMMDNLLAEKKIEPMLVVIPDTETDVPGIIPEEYPPQERRKVFYPRNALAADRELIHDIIPAIGKRFNVRQDANGRALAGLSQGGYQALVSGMSHLDHFGWLATFSGVTTETVPNMAVAAQLERPEQINQQLKNLTVVIGETDNITGKDIAGLKTMLEQKNIRFDYTHYPNLGHEMDVWRPAYSEFVQKLFK
- protein production: failed

Sequence: MRNDLFNREKSRQLSLTPRTEKIEVKHVGKTDPGTVFVMNKNISTPYSCAMHLSEWYCSKSILALVDGQPWDMYKPLTKSCEIKFLTFKDPDPREVNKAYWRSCAMMLGCVIERAFKDDYVVSLLRAPEVPVIAGAFCYDVTLDKRLDEWMPTKENLRSFTKDAHALIYRDLPFETLDVDARVALEIFQHNKYKVDFIEEKASQNPERIVKLHRIGDFIDVSEGPLIPRTSVCFQYEVSAVHNLNPSQPNLIRRFQGLSLPTHLRAQFTIWDKLVGRSRKMVTEDEVRQTENTESTQ
- protein production: failed

Sequence: MRNGRLLEACDDIPEEDIPSRRYEASMCYLRGLCYAKQNAFDRAKEAYKDALRIDVQCFEAFSQLVKNSLMSPDEEDEFMQSLAFDSIRAPGDDPDMEDEPADYVHMLYQTQLSKYRNPQAFNTAIESLSTHYGLENNADILLAKADLLYTQCRFKDALAITESILMDDKYNFAVYPIHLACLYELRKTNVLFLIAHELADTHPDEPCTWLAVGIYYFTTGKIADARRYFSKASMMDANFGPAWIGFAHTFAAEGEHDQAVTAYSTAARLFTGTHLPQVFLGMQNHAMNNMTAAEEFLKTAYSLCKTDPLLLNEMGIVLYHQDRLKEAVKMFDQVMAFGTAEMSRASEKRRMETMLSKLLQSLRPSTTSAIFSRRSTILPL
- protein production: failed

Sequence: MRNHKQSDRVLNLPAGYFGIVLGTIGMGFAWRYASQIWGISHWPGDIMVILAMIIWALLTLAFLSRLVRFPHSVMAEVRHPVMSSFVSLFPATTMLVAIGFVPWYRPLAVALFSVGVVIQLAYAAWQTAGLWRGAHPEEATTPGLYLPTVANNFISAMACGALGYNDAGLVFLGAGVFSWLSLEPVILQRLRSCGELPAVLRTSLGIQLAPALVACSAWLSVNGGEGDTLAKMLFGYGLLQLLFMLRLMPWYLSQPFNASFWSFSFGVSALATTGLHLGHGSESGLFHILAVPLFIFTNAIIALLLVRTFLLLVQGTLLIRTERAALLKTEEKNDRS
- protein production: failed

Sequence: MRNKKLIPFEVIEKAVAGEPEAIELVLQHYSPRIKYLSKYRGYINDDIQDRLKTQLIKAILQFRFDR
- protein production: failed

Sequence: MRNMNIYDSLLGAVHSEYDVLMLIKKSERGEVSLVRHRDSGTRYIFRHFYGNSEVYQKLLNVSCPNLPQIMEVGEKDGKTALLEEYVQGDTLSEILEGGLLTIAESKQIARQLCSALWVFHSMGVVHRDVKPDNVIIRGKEAVLIDFDASRIYKSTIQEDTQILGTTGFAAPEQYGLSQSDGRADIYALGVLLNIMLTGEHPSRKLAGGRMGRIVQRCTMVNPSKRYKNILHLLEVL
- protein production: failed

Sequence: MRNPHSNGNLRKLEADGGGEATEENGFVNGVILGLDGGATSTVCVCVPFFSFGERFPDPLPILGRAVAGCTNRNSVGETAARDSLEQVISEALVQSGFDKSDVRGVCLGVSGVNHPSDQEKIENWIRDMFPSHVKVYVQNDAIVALASGTMGKLHGCVLIAGTGCIAYGFDEDGKEARASGGGPILGDWGSGYGIAAQALTAVIRAHDGRGPQTMLTSTILKALGLSSPDELIGWTYADPSWARIAALVPQVVSCAEAGDEISDKILVDAAEDLALSVKAVVQRLGLCGKDGTASFPVVMVGGVLNANQKWDIGKEVSKRINRYFPGAQTIIPKVEPAVGAALLAMNFLSS
- protein production: failed

Sequence: MRNPSEDHMMRTPYQIVADHYAASDRHDPAAMMADIAPAIEWTEMAGFPCAGTYRSADEIVRNVFRRLGEEWDGYTFKLDALHDAGDTVIGVGRYSGTYRRTGKSFECRVAHVWRVDAGKIVHFEQFTDTLLVAQAMQP
- protein production: not failed

Sequence: MRNQFDLELHELEQSFLGLGQLVLETASKALLALASKDKEMAELIINKDHAINQGQSAIELTCARLLALQQPQVSDLRFVISIMSSCSDLERMGDHMAGIAKAVLQLKENQLAPDEEQLHQMGKLSLSMLADLLVAFPLHQASKAISIAQKDEQIDQYYYALSKEIIGLMKDQETSIPNGTQYLYIIGHLERFADYIANICERLVYLETGELVDLN
- protein production: not failed

Sequence: MRNSMMTIYPHLIICPHCDSVHHYRALNPGEAARCTRCQATLYRSGWINTGHSLALIQTAAIVFFIANSYPVLTVSFHALQNTATLWQAALALANGATLPLAIGCFFILIMAPFLQIMLTGWVLMFANKDRCAPGFIPVMKILLWLRPWSMLEIATLGFLIAAIKLSGFMQVMPGAGCWALAALMLLLVVVNSIDLRPLWSLVPTDSNHSVVRHEK
- protein production: failed

Sequence: MRNSNGGRDNRKSNRDQYRKPDYAGEMLFDDEEDYDDDADYDVVDDMKAHNDDYSDSAFGPDADNYDTDDDAWHDDVAAADDDPSDEDGYYDEEYDDTEDWQDMKDSKRKKKNRVWGIILALEIVTAIVIGVLFVKSYINNTYSKMQYNELKNTHINEDLNEESVKKMTGYTNIALFGIDTRDSGMVDDGVRSDSIIICSINNDTQEVKLLSVYRDTYLELCNDSQSYEKAAHAYAYGGAQGAVNMLNKNLDLNITDYVAVNFTALTEAIDALGGIDVELKEEELYKLNQCIDEQMGVNGIYSDYVYDTGVVHLNGVQATAYSRIRSTDEGDITRTWRQRTVISKMIEAAKSAGLSRLLDCINVVVDDVASSLTESEIMDMAKSCFNYKLSTTTGFPFTIASPTMNDVSYVVACDLATNATALHRFLFNDSNYTPSATVQNISDNIVNESGYGNQLDLDTFTVEDDVDSIVNTESDDY
- protein production: failed

Sequence: MRNTFIVCWQYLRAFALIYLCLLAGNAVSALLPFTIPGSIIGMLVLFTLLASQILPAQWVKPGCYLLIRHMALLFVPIGVGVMNYYDLVNQQFGPIVVSCLISTFIVMLVVGFSTQIMQRERATAGDRTPPKDNE
- protein production: failed
